Assay [1] addresses T1, human IgE with the M1′ sequence (long form of membrane IgE) expressed on transduced BJAB or Daudi cells (human, UniProt P01854 116-546).
T1 construct: Full-length heavy and light chains of the U266 IgE B cell receptor, retrovirally expressed; also called IgE/M1′; IgE-M1′
The assay is described as follows: competitive ECL binding on BJAB-IgE/M1′ cells vs biotinylated 26A11 or 47H4, 2nd IC50 column.

Assay [2] deals with T1, human IgE with the M1′ sequence (long …). Put plainly: competitive ECL binding on BJAB-IgE/M1′ cells vs biotinylated 26A11 or 47H4, 1st IC50 column.
The target is the same in assay [3]. Put plainly: Scatchard analysis on cells expressing human IgE/M1′. On the procedure: The BJAB or Daudi cells expressing various forms of IgE with or without M1′ (Human, Rhesus, Cyno) were prepared for binding in cold Binding buffer composed of base media, with 10 mM HEPES pH 7.4, and 2% FBS as well as 40 ug/ml human IgG. Cells are diluted to concentration of 1.7×10⁶ cells/ml, and kept on ice until they are added to the assay. The proteins/antibodies are iodinated with the Iodogen method. Various concentrations of cold protein are prepared in triplicate, using a 1:2 dilution starting with the saturation concentration and ending at a concentration of zero, with a total of 14 concentrations. Hot protein of a single concentration is added to all dilutions compete with the cold protein. Lastly the cells are added to the hot and cold protein mixture, 250,000 cells per sample were used. Assay is kept at 4° C. for 4 hours, shaking. Each sample is then collected and filtered on membrane, washed at least 3 times with binding buffer, allowed to dry and then counted for 1 minute using Perkin Elmer Wizard 1470 Auto Gamma Counter.

The target of assay [4] is T2, human IgE CH3-CH4-M1′/Fc fusion protein (human).
T2 construct: also called M1′ (immobilized)
T2 sequence (chain, as listed by the source limits assumed): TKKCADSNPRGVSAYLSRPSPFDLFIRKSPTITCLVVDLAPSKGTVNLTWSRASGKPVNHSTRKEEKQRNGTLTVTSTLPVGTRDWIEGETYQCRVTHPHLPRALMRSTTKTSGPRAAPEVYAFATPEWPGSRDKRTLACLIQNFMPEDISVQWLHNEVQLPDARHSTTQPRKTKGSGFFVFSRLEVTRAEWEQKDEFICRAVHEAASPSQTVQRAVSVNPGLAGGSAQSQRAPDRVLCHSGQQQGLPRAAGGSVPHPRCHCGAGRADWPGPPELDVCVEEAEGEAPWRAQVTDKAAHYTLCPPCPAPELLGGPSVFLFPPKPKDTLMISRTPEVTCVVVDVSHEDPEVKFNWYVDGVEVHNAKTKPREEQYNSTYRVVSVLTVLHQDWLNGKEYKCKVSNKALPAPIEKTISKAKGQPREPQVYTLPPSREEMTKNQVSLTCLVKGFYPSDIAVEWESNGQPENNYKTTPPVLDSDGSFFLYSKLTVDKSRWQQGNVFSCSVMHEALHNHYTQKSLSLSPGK
Put plainly: SPR Biacore A100, M1′ immobilized.

Assay [5] addresses T2, human IgE CH3-CH4-M1′/Fc fusion protein. Put plainly: SPR Biacore 2000, IgG immobilized, M1′-Fc analyte. (In general: Surface plasmon resonance follows binding to a sensor surface in real time, without labels.)
Assay [6] addresses T1, human IgE with the M1′ sequence (long …). The assay is described as follows: number printed in the titration panel; FIG. 3M calls these numbers 'Scatchard Results' (BJAB-Long cells). On the procedure:
In addition to relative affinity determinations by antibody titration and FACs detection, we also determined affinities of selected anti-MP antibodies to BJAB cell lines expressing IgE long form using Scatchard analysis. BJAB-Long cells were prepared for binding in cold Binding buffer composed of base media, with 10 mM HEPES pH 7.4, and 2% FBS as well as 40 μg/ml human IgG. Cells were diluted to a concentration of 1.7×10⁶ cells/ml, and kept on ice until added to the assay. The antibodies were iodinated with Iodogen method. Various concentrations of unlabelled antibody were prepared in triplicate, using a 1:2 dilution starting with the saturation concentration and ending at a concentration of zero, with a total of 14 concentrations. Iodinated antibody of a single concentration was added to all dilutions of the competitor unlabelled antibody. Lastly 250,000 BJAB-Long cells were added to each mixture of iodinated and unlabelled antibody. The samples were incubated at 4° C. for 4 hours, shaking. Each sample was then collected and filtered on a membrane, washed at least 3 times with binding buffer, allowed to dry and then measured for 1 minute using a Perkin Elmer Wizard 1470 Auto Gamma Counter.

For assay [7], the target named is T2, human IgE CH3-CH4-M1′/Fc fusion protein. The assay is described as follows: SPR Biacore 2000, M1′-Fc immobilized.

Where a chain is given by its changes, count along the chain named.

T1 sequence (P01854 116-546 I515L limits assumed): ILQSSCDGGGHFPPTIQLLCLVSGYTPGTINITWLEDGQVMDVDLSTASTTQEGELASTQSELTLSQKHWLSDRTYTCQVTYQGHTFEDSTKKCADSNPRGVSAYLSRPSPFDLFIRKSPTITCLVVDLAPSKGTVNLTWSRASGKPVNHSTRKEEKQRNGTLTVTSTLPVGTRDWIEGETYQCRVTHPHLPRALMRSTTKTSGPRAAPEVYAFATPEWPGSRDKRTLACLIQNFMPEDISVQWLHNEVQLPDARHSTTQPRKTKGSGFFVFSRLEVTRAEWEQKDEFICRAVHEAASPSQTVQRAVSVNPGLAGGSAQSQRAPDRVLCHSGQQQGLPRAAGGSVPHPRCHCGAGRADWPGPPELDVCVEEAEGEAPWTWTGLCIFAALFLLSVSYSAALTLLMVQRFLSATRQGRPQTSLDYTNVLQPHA

B1: humanized anti-IgE/M1′ antibody 47H4.v1 (antibody, V domains shown)
VH: EVQLVESGGGLVQPGGSLRLSCAASGFTFSDYGMAWVRQAPGKGLEWVAFISDLAYTIYYADTVTGRFTISRDNSKNTLYLQMNSLRAEDTAVYYCARDNWDAMDYWGQGTLVTVSS
VL: DIQMTQSPSSLSASVGDRVTITCRSSQSLVHNNGNTYLHWYQQKPGKAPKLLIYKVSNRFSGVPSRFSGSGSGTDFTLTISSLQPEDFATYYCSQNTLVPWTFGQGTKVEIKR
notes: direct CDR graft, produced as IgG
What is called IC50 is the concentration that gives 50% inhibition. Low readings indicate inhibition by little substance, high ones a need for much substance. By Kd is commonly meant the concentration at which binding is half-saturated. A lower Kd goes with higher affinity. Regarding B1, the IC50 in assay [1] was 18 nM; in assay [2], 12 nM. For the same molecule, the Kd in assay [3] is 0.37 nM; in assay [4] it was 7.8 nM; in assay [5], 3.1 nM.

B2: humanized anti-IgE/M1′ antibody 47H4.v4 (antibody, V domains shown)
VH: B1 VH with M34I, M104L
VL: B1 VL with G34A
notes: produced as IgG
In assay [4], B2 returned a Kd of 56 nM.

B3: humanized anti-IgE/M1′ antibody 47H4.v2 (antibody, V domains shown)
VH: B1 VH
VL: B1 VL with G34A
notes: produced as IgG
In assay [2], B3 gave an IC50 of 38 nM. Moreover, the Kd in assay [3] was determined as 0.54 nM; in assay [4] it was 7.4 nM; in assay [5], 2.8 nM.

B4: humanized anti-IgE/M1′ antibody 47H4.v3 (antibody, V domains shown)
VH: B1 VH with M34I, M104L
VL: B1 VL
notes: produced as IgG
In assay [2], B4 displayed an IC50 of around 7600 nM. Besides, the Kd in assay [4] came to 69 nM.

B5: murine anti-IgE/M1′ antibody 45C1 (antibody, V domains shown)
VH: QIQLVQSGPELKKPGETVKISCKASGYTFTNYGMNWVKQAPGKGLKWMGWINTYTGEPTYVDDFKGRFAFSLETSASTAYLQINNLKNEDMATYFCARGIYYDNDDIYWGQGTILTVSS
VL: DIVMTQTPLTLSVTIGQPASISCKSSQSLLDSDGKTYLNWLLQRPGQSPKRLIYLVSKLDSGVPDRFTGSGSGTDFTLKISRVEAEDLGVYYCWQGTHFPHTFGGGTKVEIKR
notes: murine hybridoma antibody; also called 45C1.6.14
In turn, B5 returned a Kd in assay [6] of 16.8 nM.

B6: murine anti-IgE/M1′ antibody 1C11 (antibody, V domains shown)
VH: QVQLQQSGAELVRPGASVTLSCKASGYTFTDFEMHWVKQTPVHGLEWIGAIAPETGTSAYNQKFRGKATLTADISSSTAYMDLRSLTSEDSAVYYCTIYYAAPWFAYWGQGTLVTVSS
VL: DIVMSQSPSSLAVSVGEKVTMSCKSSQSLLYSSNQKNYLAWYQQKPGQSPKLLIYWASTRESGVPDRFTGSGSVTDFPLTISSVKAEDLAVYYCQQYYSYPYTFGGGTKVEIKR
notes: murine hybridoma antibody; also called 1C11.10.20
B6 displayed a Kd in assay [6] of 2.7 nM.

B7: humanized anti-IgE/M1′ antibody 26A11.v1 (antibody, V domains shown)
VH: EVQLVESGGGLVQPGGSLRLSCAASGYTFTDYYMMWVRQAPGKGLEWVGDINPNNYDTSYNQKFKGRFTISADTSKNTAYLQMNSLRAEDTAVYYCASKAYWGQGTLVTVSS
VL: DIQMTQSPSSLSASVGDRVTITCRSSQDISNSLNWYQQKPGKAPKLLIYSTSRLHSGVPSRFSGSGSGTDFTLTISSLQPEDFATYYCQQGHTLPWTFGQGTKVEIKR
notes: direct CDR graft, produced as IgG in 293 cells
Take B7: the IC50 in assay [1] turned out to be 19 nM; in assay [2], 15 nM. Further, the dissociation constant (Kd) turned out to be 1.06 nM in assay [3], 0.2 nM in assay [4], 9 nM in assay [5] and 1.7 nM in assay [7].

B8: humanized anti-IgE/M1′ antibody 26A11.v13 (antibody, V domains shown)
VH: B7 VH
VL: B7 VL with N31S
notes: produced as IgG
Consider B8, for which the IC50 in assay [1] was 19 nM. In assay [7], this molecule yielded a Kd of 4 nM.

B9: humanized anti-IgE/M1′ antibody 26A11.v5 (antibody, V domains shown)
VH: B7 VH with M34I
VL: B7 VL with S32A
notes: produced as IgG
For the molecule B9, the IC50 was 35 nM in assay [1] and 25 nM in assay [2].

B10: humanized anti-IgE/M1′ antibody 26A11.v16 (antibody, V domains shown)
VH: B7 VH with M34I
VL: B7 VL with N31Q
notes: produced as IgG
In assay [1], B10 displayed an IC50 of 27 nM. This molecule also came in with a Kd in assay [7] of 8.8 nM.

B11: humanized anti-IgE/M1′ antibody 26A11.v14 (antibody, V domains shown)
VH: B7 VH
VL: B7 VL with N31Q
notes: produced as IgG
In assay [1], B11 showed an IC50 of 19 nM. Further, the Kd in assay [3] is 1.5 nM; in assay [7], 3.9 nM.

B12: humanized anti-IgE/M1′ antibody 26A11.v15 (antibody, V domains shown)
VH: B7 VH with M34I
VL: B7 VL with N31S
notes: produced as IgG
Take B12: the IC50 in assay [1] was determined as 32 nM. Also, the Kd in assay [7] was 8.4 nM.

B13: humanized anti-IgE/M1′ antibody 26A11.v3 (antibody, V domains shown)
VH: B7 VH
VL: B7 VL with S32Y
notes: produced as IgG
Consider B13, for which the IC50 was 22 nM in assay [1] and 10 nM in assay [2]. Also, the Kd was below 0.05 nM in assay [4] and 2.8 nM in assay [7].

B14: humanized anti-IgE/M1′ antibody 26A11.v2 (antibody, V domains shown)
VH: B7 VH
VL: B7 VL with S32A
notes: produced as IgG
Consider B14, for which, in assay [2], the IC50 was determined as 18 nM. In assay [4], this molecule showed a Kd of 0.3 nM.

B15: humanized anti-IgE/M1′ antibody 26A11.v4 (antibody, V domains shown)
VH: B7 VH with M34I
VL: B7 VL
notes: produced as IgG
On to B15, for which the IC50 in assay [1] was 29 nM; in assay [2] it was 20 nM. The Kd in assay [4] came to 0.9 nM.

The record behind these values is US20120149881A1 (Genentech, published 2012).
